Reference: patent publication US10245299B2, “Autoassembling peptides for the treatment of pulmonary bulla” (3-D MATRIX, LTD., priority 2014, dated 2019)

Key:
[1] = Rheology of peptides mixed with cation/anion solutions; format: physicochemical
Procedure: In a rheological comparison of 2.5% RADA16 and 2.5% RADA16+NaCl, KCl, and CaCl2, solutions of 0.5% RADA16 mixed with 0.005, 0.05, 0.125, 0.25, 0.5, and 1 M NaCl, KCl, and CaCl2 were prepared. The anion, chloride (Cl−), was kept the same to observe the effect of the cations, sodium (Na+), potassium (K+), and calcium (Ca2+). FIG. 21 provides a basic understanding of how varying the cations of a salt solution effects the viscoelastic properties and the stiffness of self-assembling peptides. […] This should be because Ca has […] higher ionic strength than Na and K at the same molar concentrations. Therefore, influence of salts on the peptide solution is more related to their ionic strength rather than their molar concentration, as shown in FIGS. 17-18 and Table 2a-c. In some embodiments, there is a correlation between the properties of the peptide solutions with salts based on the concentration of the salts.
Rheological measurements of stiffness of 2.5% RADA16 and 2.5% RADA16+0.25 M CaCl2 was evaluated.
Rheological measurements of reversibility of 0.5% RADA16 solution with +0.125, 0.25, and 0.5 M CaCl2 were evaluated. Solutions of 0.5% RADA16 mixed with 0.125, 0.25, and 0.5 M CaCl2 were prepared. The structure of the self-assembled peptide solution were disrupted thoroughly by application of mechanical stress through vortexing and sonication. The mixtures were placed at room temperature for 48 hours to allow self-assembly to take place. […] FIG. 23a presents raw rheological data of the peptide solution with salts and the perturbed peptide solution while FIG. 23b provides a comparison of stiffness of the control peptide solution and the perturbed peptide solution.
Rheological measurements of gelation kinetics of 0.5% RADA16+NaCl, KCl, and CaCl2 were evaluated. A solution of 0.5% RADA16 was prepared and gelation kinetics were observed by treatment with several cations (e.g. Na, […], K) and anions (e.g. Cl, CO3, PO4, SO4). It was determined how long it will take for the peptide mixtures to gel and how to control that gelation time by varying the cation/anion type and concentration. […] In vivo and in vitro qualitative experiments and the resulting observations were supportive of these conclusions.
The two gels were: (1) a combination of the self-assembling peptide with a well-known cation/anion solution, Ringer's Solution (pH 5.3), used in the medical field and (2) a combination of the self-assembling peptide with a well-known contrast agent, indigo carmine, which is a dye solution containing sulfate (anion) and sodium (cation) ions. Indigo carmine contains indigoindisulfonate sodium (C16H8N2Na2O8S2), water, and sodium citrate […] for pH adjustment. Using indigo carmine powder, a 1% solution was prepared for use in experimentation. This corresponds to 10 mg/1 ml of water. The concentration of indigo carmine solution used in experimentation was 0.00585% in water.
The rheological comparisons of these mixtures and the visualization of the gels can be observed in FIG. 24a-24c. […] The concentration of the contrast agent or cation/anion mixture and peptide hydrogel that were mixed were based on an understanding of using cations and anions as described herein. […] FIG. 24C presents a comparison of stiffness of RADA16 and RADA16 mixed with Ringer's Solution.

pulmonary bulla = assay: Filling of pulmonary bulla cavity through connecting bronchioles before collapse; conditions: 1.0% RADA16 with 0.00585% indigo carmine
Procedure: A method for pulmonary bullae treatment using peptide hydrogel systems distinct from the method discussed in Example 19 was tested. Here, the pulmonary bullae are generally filled prior to collapse.
The pulmonary bulla cavity was filled with 1.0% RADA16 through the connecting bronchioles using an endotracheal tube inserted through the primary bronchus and into the lung. The bulla was then collapsed to remove the pocket of trapped air. 1.0% RADA16 mixed with 0.00585% indigo carmine was used here for visualization of the hydrogel spreading into the bullae cavity.

[2] = Gelation kinetics of pH adjusted peptides, time sweep with DMEM; format: physicochemical
Procedure: The effect of pH level on the properties of gelation kinetics was evaluated to identify optimized pH levels for the peptides as described herein. Fast gelation kinetics of PuraMatrix® and other peptides within body fluid may generally improve its function and response time for various clinical applications. The pH level may impart response time to begin gelation when treated with simulated body fluid including but not limited to DMEM. […] A fast response time of PuraMatrix® and other peptides within body fluid may generally improve its function and response time for various clinical applications.
Time sweep tests were performed at 1 rad/sec and at 1 Pa with 20 mm plates and 500 μm gap distance. During time sweep test of PuraMatrix® 2.5% solution, DMEM was added into the chamber surrounding the measuring plates to soak PuraMatrix® solution at 0 time point. The results are shown in FIG. 9A for PuraMatrix® 2.5% solution.
Time sweep tests were performed at 1 rad/sec and at 1 Pa with 20 mm plates and 500 μm gap distance. During time sweep test of IEIK13 1.5% solution, DMEM was added into the chamber surrounding the measuring plates to soak IEIK13 1.5% solution at 0 time point and continuously data was recorded. The results are shown in FIG. 9B for IEIK13 1.5% solution.

[3] = Rheological properties (storage moduli) of 1% peptides before and after DMEM treatment for 2 minutes; format: physicochemical; conditions: peptides 1%, compared between peptides
Procedure: The effects of Dulbecco's modified Eagle's medium (DMEM) (pH 7.4) on the rheological properties of IEIK13, KLD12, and PuraMatrix® were evaluated on a rheometer (AR500, TA Instruments) with 40 mm plates. DMEM is generally a cell culture medium that contains 6.4 g/L of NaCl, 3.4 g/L NaHCO3 (sodium bicarbonate), minor amounts of other salts, various amino acids, and 4.5 g/L of glucose. The pH level of DMEM is generally 7.2±0.2 and the osmolality is 335±30 mOsm/Kg H2O; both measurements are close to human physiological fluids such as blood.
Peptide solutions (1%) were kept at 4° C. for at least 48 hours before testing. To perform the experiment, 1 mL of peptide solution was gently pipetted and placed on the plate of the rheometer. 2 mL of DMEM solution was gently added around the peptide solution. The peptide solution was treated with DMEM for two minutes, then the media was removed, and the plates were placed at a measuring geometry gap at around 450 μm. Measurements were performed at 37° C. after 2 min of relaxation time. Frequency tests were performed from 1 rad/s to 100 rad/s at 1 Pa of oscillation stress.
The rheological properties of the peptides (1%) were compared before and after DMEM treatment for 2 minutes, as shown in FIG. 1A. […]

[4] = with pH adjustment, PuraMatrix® 2.5%, IEIK13 1.5% solution

Substance | gelation kinetics by cation/anion type ([1]; 0.5% RADA16) | reversibility after perturbation ([1]; 0.5% RADA16 with CaCl2 within the optimal salt concentration range, vortexing and sonication, 48 hours at room temperature) | stiffness with added CaCl2 ([1]; 2.5% RADA16 vs 2.5% RADA16 with CaCl2) | effect of cations on stiffness ([1]; RADA16 mixed with 0.005-1 M NaCl, KCl, and CaCl2, same molar concentrations) | mechanical properties of mixed gel ([1]; RADA16 mixed with Ringer's Solution (pH 5.3)) | filling of bullae cavity through the connecting bronchioles (pulmonary bulla) | storage modulus response on DMEM addition [2, 4] | mechanical properties of mixed gel ([1]; 1.5% IEIK13 mixed with 0.00585% indigo carmine) | fold increase of storage modulus after DMEM treatment [3] | storage modulus response on DMEM addition ([2]; without pH adjustment)
Arg-Ala-Asp-Ala-Arg-Ala-Asp-Ala-Arg-Ala-Asp-Ala-Arg-Ala-Asp-Ala [PuraMatrix®] | Chlorine showed the quickest gelation and sulfate showed the slowest gelation | remained reversible | noticeable increase in stiffness | Ca provided the best enhancement of stiffness | A stiffer gel with faster gelation kinetics that maintains reversibility | completely fill the bullae cavity | immediate storage modulus increase | – | – | –
Ile-Glu-Ile-Lys-Ile-Glu-Ile-Lys-Ile-Glu-Ile-Lys-Ile [IEIK13] | – | – | – | – | – | – | immediate storage modulus increase | maintains stiffness, reversibility, and gelation kinetics | lower-fold increase of storage modulus than weaker peptide solutions | immediate storage modulus increase
